The values that follow come from US20110268745A1 (Novo Nordisk, published 2011).

In this assay the target is T1, human tissue factor pathway inhibitor (TFPI) (human, UniProt P10646 29-304, biotinylated in the ELISA (site not stated)).
T1 construct: Full length TFPI and a short version, TFPIB161B (first two Kunitz domains), were both used for immunisation and ELISA; also called TFPI1; human TFPI1
T1 sequence: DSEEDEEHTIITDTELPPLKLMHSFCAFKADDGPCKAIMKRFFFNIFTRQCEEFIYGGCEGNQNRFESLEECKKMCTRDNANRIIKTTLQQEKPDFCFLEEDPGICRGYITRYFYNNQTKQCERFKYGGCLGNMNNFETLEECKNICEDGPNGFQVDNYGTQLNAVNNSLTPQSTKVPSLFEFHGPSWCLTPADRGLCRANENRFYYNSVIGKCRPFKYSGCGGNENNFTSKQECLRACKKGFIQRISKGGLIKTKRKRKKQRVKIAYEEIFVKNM
Nature of the assay: hybridoma screening; ELISA with antibody captured on anti-mouse IgG and soluble biotinylated human TFPI or TFPIB161B, as described in the methods. As to the method: Immunoplates were coated with anti-mouse IgG. Culture supernatants from the hybridoma cells were added to the plates and, after washing, soluble biotinylated human TFPI or TFPIB161B was added to test for specific binding.
In general terms: ELISA stands for enzyme-linked immunosorbent assay.

B1: TFPI-3F18A4B1 (antibody, IgG1, V domains shown)
VH: EVKLVESGGGLVKPGGSLRLSCAASGFTFSNYALSWVRQTPDKRLEWVASISSGGATYYPDSVEGRFTISRDNVRNILYLQMSSLQSEDTAMYYCTRGAYGSDYFDYWGQGTTLTVSS
VL: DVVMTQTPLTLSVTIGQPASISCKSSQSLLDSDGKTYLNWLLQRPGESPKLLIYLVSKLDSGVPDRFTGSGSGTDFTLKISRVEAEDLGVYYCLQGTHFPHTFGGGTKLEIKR
notes: also called TFPI-3F18A2; anti-TFPI antibody 3F18
In the case of B1, the binding result is given as “binds”.
